Laboratory results taken from patent US20230203162A1 (NUMAB THERAPEUTICS, published 2023).

What was measured:
[1] = target: T1, human serum albumin (hSA, Sigma-Aldrich A3782) (human, UniProt P02768 25-609); assay: SPR, albumin immobilized on CM5, scFv as analyte, multi-cycle, 1:1 Langmuir, pH 5.5
[2] = target: T2, cynomolgus monkey serum albumin (cSA, Molecular Innovations CYSA) (cynomolgus monkey); assay: as above
[3] = target: T3, mouse serum albumin (mSA, Sigma-Aldrich A3559) (mouse, UniProt P07724 25-608); assay: as above
[4] = target: T1, human serum albumin (hSA, Sigma-Aldrich …); assay: SPR, albumin immobilized on CM5, scFv as analyte, multi-cycle, 1:1 Langmuir, pH 7.4
[5] = target: T2, cynomolgus monkey serum albumin (cSA, …); assay: as above
[6] = target: T3, mouse serum albumin (mSA, Sigma-Aldrich …); assay: as above
[7] = target: T3, mouse serum albumin (mSA, Sigma-Aldrich …); assay: SPR, albumin immobilized on CM5, scFv as analyte, 1:1 fit, pH 5.5; biphasic binding corrected with bulk correction
[8] = target: T3, mouse serum albumin (mSA, Sigma-Aldrich …); assay: SPR, albumin immobilized on CM5, scFv as analyte, 1:1 fit, pH 7.4; biphasic binding corrected with bulk correction

- Kd [1]: 3.3 nM
- koff [1]: 0.003 s⁻¹
- kon [1]: 900000 M⁻¹ s⁻¹
- Kd [2]: 2.3 nM
- koff [2]: 0.0021 s⁻¹
- kon [2]: 910000 M⁻¹ s⁻¹
- koff [3]: 0.0002 s⁻¹
- kon [3]: 78000 M⁻¹ s⁻¹
- Kd [4]: 2.2 nM
- koff [4]: 0.0012 s⁻¹
- kon [4]: 550000 M⁻¹ s⁻¹
- Kd [5]: 1.6 nM
- koff [5]: 0.00091 s⁻¹
- kon [5]: 580000 M⁻¹ s⁻¹
- koff [6]: 0.00029 s⁻¹
- kon [6]: 32000 M⁻¹ s⁻¹
- Kd [7]: 2.5 nM
- Kd [8]: 9 nM
B1: anti-hSA scFv PRO2155 (domain 19-04-A10-sc02) (scFv, V domains shown)
VH: EVQLVESGGGLVQPGGSLRLSCAASGFSLSSYAMNWVRQAPGKGLEWIGHINAGDIAYYATWAKGRFTISRDNSKNTVYLQMNSLRAEDTAVYFCARGAGGFSTGPFKLWGQGTLVTVSS
VL: AFELTQSPSSLSASVGDRVTITCQASESINSRLAWYQQKPGQPPKLLIYDASDLTSGVPSRFSGSGSGTDFTLTISSLQPEDFATYYCQGYGGSSTTTFGGGTKLTVLG
notes: Tested as scFv
